Assay: soluble on expression in E. coli; label from the status in PepcDB or PDB records

Sequence | soluble on expression in E. coli
MFRHVAQNLGSRNTSIQSYRLLRTRWERGYLKDLYHRRQILGADPAISRSSYPNCSVQVRNHHCSADKSTLQWAPIKTSIDNSSDDFAANTAEMKVLVEDLKAKISKIEQAGGEKAVKLHRSRGKMLARERIDGIVDAGSPFIEFSQLAGYEMYGKEEVPSGGILTGVGIVSGRVCVIVANDATVKGGTYYPITVKKHLRAQEIARENKLPCIYLVDSGGANLPRQADIFADSQHFGRIFYNQATMSSEGIPQLAVVMGSCTAGGAYVPAMSDQAIIVKGTGTVFLGGPPLVKAATGEEISAEELGGADLHCGESGVTDYYAHNDKHALYLARSCIAGLPPVEEHMTFNPNADEPLYPAEEIYGIVGSNLKKTYDVREVIARIVDGSRFHEFKERYGETLVTGFATIYGQRVGILANNGVLFAESAMKGSHFIELCCQRKIPLLFLQNITGFMVGRDAEAGGIAKHGAKLVTAVACAKVPKITVLVGGSYGAGNYGMCGRGYSPRYVFMWPNSRISVMGGEQAANVLSTVQKEKKKREGADWTDQQDLELRKPVEEKFEKEGHPYFASARLWDDGVIDPKDTRKVLGLAFQSTLQKPIPETKFGVFRM | not soluble
MSAQDFLVELGTEELPPKALASLGDAFLAGIEKGLQAAGLNYTGKQVYAAPRRLAVLIRQLDVQQPDRSINIDGPPLQAAFNAEGEPTQAALGFAKKCGVELAEIDQSGPKLRFSQHIPGKATVGLLPTIVEDSLNDLPIPKRMRWAASREEFVRPTQWLVMLLGDQVVDCTILSQKAGRESRGHRFHHPENVLITTPANYVEDLRKAYVLADFAERRELISKRTAELAMQQEGTAIVPPALLDEVTALVEWPVPLVCSFEERFLEVPQEALITTMQDNQKYFCLLDSEGKLLPRFITVANVESRDPKQIVQGNEKVVRPRLTDAEFFFKQDKKQPLETFNERLKNVVFQAQLGTVYDKAERVSRLAAFIAPLIGGDAQRAGRAGLLSKCDLATEMVGEFPEMQGVAGYYYALNDGEPEDVALALNEQYMPRGAGAELPQTLTGAAVAIADKLDTLVGIFGIGMLPTGSKDPYALRRAALGVLRILIEKQLDLDLTGAVEFAVKQFGAKIKAPGLAEQVLEFIFDRLRARYEDEGIDVATYLSVRALQ | not soluble
MSLSDYAPGMTGGPTGFEGAERFQYNNTMSEGRAIEGIKALQAAGNAPAKISMLLTDGAIGQITKPFPEGGPSAKEVWERETGIEIDIVGAPAEDIFKKVMQDVTTGGGTFDIYTGPWNSTGDLVSSGGAVNCSDFVAKYQPDWADPERGTPTPEMEKLLYTYAGDYYSFSLDGDFQTWFYLKGLYEDPRVQDAFLSETGVALKTPDTWEEVDRISKFFTGKDFGNGPMYGNGNLMSPFWGLATFYARFASMDFPNYHFFDEDGNPNLNSDLGIQCAEEHVRSFEWCPPDALTFTWAEAYATMWNLQIPHTAIYTNLVKFGDGYNADGTPKSKATGMIGSHLPVGRRFGDQLNRRSVLYYHITAWISSQSQHPEAVYLFLQWLSSTRTYTWMAGNPGGYFDPMQQANFKEPLVASTYHPYAMETIPQTIARSVPSINFAGQTALDNALDEEIQAAITGQKSAREAMDAAQSKWERIIKRQKRNGIVDAIKASRATWPTIVDEGHHHHHH | soluble
MGRMSEKLGQDIKQSIFKVPPLIQKSDIDPEHCRVSAQLDDNVDDNIPLRVMLLLMDEVFDLKDRNQWLRRNIKNLLQQLIKATYGDTINRKIVDHVDNMTSPEQVSDYVKRFRDSYWPNGILAETPPRRDKNLRMRTRVAAKTTLLGIMPDELKHIIGADTTRKGILRVFEMFQHQPLNRRLVYVFLEGFLETLFPQYKFPELFEKLHSRSPRVLKYSHKLRSLQKR | not soluble
MGSDKIHHHHHHMNEAFLSLTPAQIRHRLHAAPELSGQETETARRVAGWLEQAGATRIVTGLGGHGVAGVFAGTLPGPRVMFRAELDGLPIDETAEIAWKSTCEHVAHSCGHDGHMAVLLGLAQRLAEQPPTHGETVLLFQPSEETGRGAREVVESSRFEEIAPDHVYALHNLPGKPLGEVSVREGAMTCASRGLIIRLNGLCAHAAHPEQGRNPALAMCRILQGLKRLPQQLPDDQGLVMVTLIHARLGEVAFGTSPGQAEVMATLRTEDDAMMRALAEASVALARAEAEEDDLGIEIDWCDVFQATRNHPAAVASIREAARSLNMPLTALPEAHRWSEDFGWLAAQGQGALLTLGAGERCLPLHNPGYDFPDDLLDTGIALFERLVRLHQSDV | not soluble
MGSDKIHHHHHHMSLALQYFKALSDETRLRLIHVLNRHELSVNELVSILEMGQSRVSRHLKILTGAGLLTSRRDGLWVFYSAAAEGDGRAFLDAVTPFVTTDMVLQADLDMAQKIIEERALKTRQFFNAIAEDWDELNREVLGGFDLAGAVAEAMPQCETAVDLGCGTGSVIERMLQRSQQVIGVDGSPRMLELARRRFVEGAERVSLRIGELDHLPLRDGEADFASINMVLHHLSDPGVALGEIRRVLRLGGQLMVTDFDRHDNERMRSDYGDRWLGFEGVQLEGLLREAGFTVRECRRQGVAKGLALHLMLAEKTQQ | not soluble
MRKWRIEDSEELYNITGWGTSYFSINDAGHVVVTPRRDGVTVDLKELVDELQLRDVASPMLLRFPDILDNRIEKMSSCFKQAAEEYGYKAENFIIYPIKVNQMRPVVEEIISHGKKFNLGLEAGSKPELHAVIAVNTDSDSLIVCNGYKDESYIELALLAQKMGKRIFLVVEKMNELKLIAKMAKQLNVQPNIGIRIKLASSGSGKWEESGGDASKFGLTSSELLEALDFMESKGLKDCLKLIHFHIGSQVTKIRRIKTALREASQFYVQLHSMGFNVEFVDIGGGLGVDYDGTRSSNSEGSVNYSIQEYVNDSISTLVDVSDKNGIPHPNIITESGRALTAHHSVLIFEVLETATLPEWDDEEEIAPDAHELVQELYSIWDSLNQNKMLEAWHDAQQIREEALDLFSHGIVDLKTRAQIERLYWSITREINQIAGGLKHAPDEFRGLSKLLADKYFCNFSLFQSLPDSWAIDQIFPIMPIQRLDEKPERSATLQDITCDSDGKIANFISTRNVAHYLPVHSLKKTEPYYLAVFLVGAYQEILGDMHNLFGDTNAVHVSVNEKGYNIEQIIDGETVAEVLDYVQYNPKKLVRTLETWVTKSVKEGKISLEEGKEFLSNYRSGLYGYTYLE | not soluble
MSEISIKRAHENEKDAEEDMEPATKKIKSDDVTEEQEKPEIVEKAEKVKSMKKEEAGSLKSPPNDEMESEFTHVLNELSKQKETIKKLLDDLRADNKKRKTHNIRTIFQRKD | not soluble
MGSDKIHHHHHHMIKEIRQRIENFESDYVFTYQDLNLSPERSERVIKILNRLVAEGIIAKISKGRFYKPKKSVFGMLKPKLEEVVKDFLEKDGEVIGYMTGYLAFNRLGLTTQVPNIIQIGTNVRKNKTVRGMFTISFVIQSNPITKENIPLLQLLDAIKFIKEIPDTTTSQSCKCIMTIIQNLNKKDRDELLILAKKYPPMVRALLGAMVENIYGTNKALPLWNTLNPLTLYNVKIDKQVLPEVRKWRIQ | not soluble
MSLYENKKVVAIGGGHGLGRMLAALKVFGSNATGIVTTTDNGGSTGRIRHCQGGIAWGDTRNCINQLITEPSISSMMFEYRFKGAGELNGHNLGNLMLTALDNLSVRPLDAINLIRNMLKVDVNILPMSEHPSDLAALAMDGKWVTGETSVDEMTQDLRRLDLAPEVPATKEAVTAIQDADCVILGPGSFLTSVMPPLLLPELGKAIARNQTAKVIFVENLSPEYGPAGRMSLEQKLEWCERACQGRKIDVVLGHHPHPELEQRWNFVTRDLASANRDWRHDRQKLRQAIEEQLMNLEHHHHHH | soluble
MAEKKLEENPYDLDAWSILIREAQNQPIDKARKTYERLVAQFPSSGRFWKLYIEAEIKAKNYDKVEKLFQRCLMKVLHIDLWKCYLSYVRETKGKLPSYKEKMAQAYDFALDKIGMEIMSYQIWVDYINFLKGVEAVGSYAENQRITAVRRVYQRGCVNPMINIEQLWRDYNKYEEGINIHLAKKMIEDRSRDYMNARRVAKEYETVMKGLDRNAPSVPPQNTPQEAQQVDMWKKYIQWEKSNPLRTEDQTLITKRVMFAYEQCLLVLGHHPDIWYEAAQYLEQSSKLLAEKGDMNNAKLFSDEAANIYERAISTLLKKNMLLYFAYADYEESRMKYEKVHSIYNRLLAIEDIDPTLVYIQYMKFARRAEGIKSGRMIFKKAREDARTRHHVYVTAALMEYYCSKDKSVAFKIFELGLKKYGDIPEYVLAYIDYLSHLNEDNNTRVLFERVLTSGSLPPEKSGEIWARFLAFESNIGDLASILKVEKRRFTAFREEYEGKETALLVDRYKFMDLYPCSASELKALGYKDV | soluble
MSLDENKPVLVLGATGKQGGSAARYLLERGWTVRAFVRDPGAPKAKELRELGASLHTGDLEDAGSVRAAMKGAYGVFSIQTPMTPAGVEGEERQGKICADAARDLGVQHYVHSSVGGAERPEGVNWRLSKLAIEQRIQENALRFTFLRPSYFMENLNHDMSPLVMEDGVLTFRRGLGPANTLQMISGPDIGYFAADAFDDPDTFGGAKIELAGDELTGEQIAAAFGRHTGLPARFVSVPIPELHRTGFEWQAISYTWLNGIGYHADIPTLRARFPQLLTLDQWLARTGWTPRDPAEGHHHHHH | soluble
MSSRVLTPDVVGIDALVHDHQTVLAKAEGGVVAVFANNAPAFYAVTPARLAELLALEEKLARPGSDVALDDQLYQEPQAAPVAVPMGKFAMYPDWQPDADFIRLAALWGVALREPVTTEELASFIAYWQAEGKVFHHVQWQQKLARSLQIGRASNGGLPKRDVNTVSEPDSQIPPGFRG | soluble
MLSGTRSRSSTKARKGTPRPPALSQSVYCGRRYTGPHTTFFFEITNDEYLLLSVLIFCNPALLQLSENGKLLLTIYRNLYCSALLQHCLLNNQKSGPARFTELLGVYQAIEVHYSDLANYIVLFQLNRPKVNQIVKNCFEAVT | not soluble
ASMGKSAVIFVERATPATLTELKDALSNSILSVRDPWSIDFRTYRCSIKNLPADVSKLMYSITFHHHGRQTVLIKDNSAMVTTAAAADIPPALVFNGSSTGVPESIDTILSSKLSNIWMQRQLIKGDAGETLILDGLTVRLVNLFSSTGFKGLLIELQADEAGEFETKIAGIEGHLAEIRAKEYKTSSDSLGPDTSNEICDLAYQYVRALEL | soluble
MVKTRLTAEEFFALPLERGELVDGEVREERPPKPEHGRIALRIGYHLMRWLEETGRGVAGVEGGFVLRRDPDRVRSPDVWFLSHERLKEVTREGFYEGAPDLAVEVVSPGEEAEGVLAKVLDYLEAGAKAVWLVYPELKAVEVYGRGGEGRLLRAHEVLEGGEALPGFRLPLEALFGQ | soluble
MAFVTTAEVCDANQELIRSGQLRALQPIFQIYGRRQIFSGPVVTVKVFEDNGLIRQFIEEKGNGRVLVVDGGGSQRCAILGGNPVVQAQNNGWAGIVVNGCIRDVDEINGCDIGVRALASHPIKASKKGLGEQRVPVNIAGTRICDGEWLYADTDGILVSQIELSV | soluble
MSLEELSLYTLRHVLERSAVLYADQPSLSQLGCEPLTFRDLHDHAEHLALWLRDNGVGTGDRVALLAENSPNWGIAYFAITGMGAIAVPILPEFHADAVQHILRHSEAKAVFVSERLFPKLEEGEGIADSLMCISMETFQSIAQGTTRDMLRELKSKGLREFRKLRDKAKRLANMADAAPAEDDVAAIIYTSGTTGHSKGVVLTHRNIVWDADAVKSIVKLGPGDRMLSILPLSHTYECTLGLVLPVLNGAHVHYMDKPPTARALLPAMAQVRPTAMLSVPLVIEKIFKTALLPKLTGSWLKQRLYAIPFVRRKLHALAGRKLLESFGGALRIFCIGGAGIAPDVERFLREANFPYAIGYGLTETAPLVAGSGPASTRLTSTGFTLDGVDIAIDAPDPATGEGEIIVRGPNVMREYYKAPQITASAFTPEGWFRTGDLGKFDADGYLYIKGRLKNVIIGPSGENIYPEEVEAIIHQSPFVLESLVFQQDGRLVARIHLDAARLDESFGDLPALKQREKIDALLETLRNEVNTKVSTFARLAKVIEQTEPFEKTPTHKIKRYLYVEQEGHHHHHH | soluble
